How the values were obtained:
[1] = biological target: T1, native human ApoC3 (human, UniProt P02656 21-99, biotinylated in the captured-antigen assays (Tables 6 and 8); sites not stated); assay: SPR, biotinylated antigen captured on SA chip, scFv periplasmic extract injected, pH 7.4
T1 construct: also called nhuApoC3; native huApoC3

[2] = biological target: T2, recombinant cynomolgus ApoC3 (cynomolgus monkey, UniProt P18659 21-99, biotinylated in the captured-antigen assays (Tables 6 and 8); sites not stated); assay: as above
T2 construct: No cleavage site is stated, so none is applied; also called rcyApoC3; bio-rcyApoC3
T2 sequence (P18659 21-99 limits assumed): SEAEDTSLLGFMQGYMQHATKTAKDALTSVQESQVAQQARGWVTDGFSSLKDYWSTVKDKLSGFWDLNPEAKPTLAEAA

T1 sequence (P02656 21-99): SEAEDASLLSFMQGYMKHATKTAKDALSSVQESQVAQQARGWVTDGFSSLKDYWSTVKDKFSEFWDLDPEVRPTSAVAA

R0 [1] [RU] | koff [1] [s⁻¹] | R0 [2] [RU] | koff [2] [s⁻¹] | Binder
809 | 0.00633 | 92.7 | 0.00714 | 29G11 scFv (scFv, part only; not given: scFv linker, domain order, c-myc tag, V domains shown, not shown: another chain or arm of the molecule; small tags and cut ends) VH: QLQLVESGGGLVQPGGSLRLSCAASGFTFGTYSMRWVRQVPRKALEWVSSISTDGGGTAYRDSVKGRFTISRDNAKNTLYLQMNNLKPEDTAIYYCVIAGYSDWGQGTQVTVSS VL: DVVLTQTPGSLSVVPGGSASISCKASQSLVYSDGKTYLYWLRQKPGQSPQRLIYQVSNRPSGVPDRFTGSGSGTDFTLKISGVKAEDAGVYYCAQDTYSTKTFGQGTKLEIK
808 | 0.00144 | 52 | 0.059 | 29F10 scFv (scFv, part only; not given: scFv linker, domain order, c-myc tag, V domains shown, not shown: another chain or arm of the molecule; large carriers; small tags and cut ends) VH: QLQLVESGGGLVQPGGSLRLSCAASGFTFGTYSMRWVRQVPRKALEWVSSISTDGGGTAYRDSVKGRFTISRDNAKNTLYLQMNNLKPEDTAIYYCVIAGYSDWGQGTQVTVSS VL: DVVLTQTPGSLSVVPGEPASVSCKASQSLVHPDGKTYLYWLLQKPGQSPQRLIYQVSNRGSGVPDRFTGSGSGTDFTLEISGVKAEDAGVYYCAQGTYWPKTFGQGTKLEIK

Second part, the binder before the results:

Binder | R0 [1] [RU] | koff [1] [s⁻¹] | R0 [2] [RU] | koff [2] [s⁻¹]
29B03 scFv (scFv, part only; not given: scFv linker, domain order, c-myc tag, V domains shown, not shown: another chain or arm of the molecule; small tags and cut ends) VH: QLQLVESGGGLVQPGGSLRLSCAASGFTFGTYSMRWVRQVPRKALEWVSSISTDGGGTAYRDSVKGRFTISRDNAKNTLYLQMNNLKPEDTAIYYCVIAGYSDWGQGTQVTVSS VL: DVVLTQTPGSLSVVPGESASISCKAGQNLVHPDGKTYLYWLLQKPGQSPQRLIYQVSNRDSGVPDRFTGSGSGTDFTLKISGVKVEDAGVYYCAQGTYWPKTFGQGTKLEIK | 930 | 0.000572 | 122 | 0.0418
29A06 scFv (scFv, part only; not given: scFv linker, domain order, c-myc tag, V domains shown, not shown: another chain or arm of the molecule; small tags and cut ends) VH: QLQLVESGGGLVQPGGSLRLSCAASGFTFGTYSMRWVRQVPRKALEWVSSISTDGGGTAYRDSVKGRFTISRDNAKNTLYLQMNNLKPEDTAIYYCVIAGYSDWGQGTQVTVSS VL: DVVLTQTPGSLSVVPGESASISCKASQNLVHSNGKTYLYWLLQKPGQSPQRLIYQVSNRGSEVPDRFTGSGSGTDFTLKISGVKAEDAGVYYCAQGTYWPKTFGQGTKLEIK | 1010 | 0.00162 | 125 | 0.0406
29A05 scFv (scFv, part only; not given: scFv linker, domain order, c-myc tag, V domains shown, not shown: another chain or arm of the molecule; small tags and cut ends) VH: QLQLVESGGGLVQPGGSLRLSCAASGFTFGTYSMRWVRQVPRKALEWVSSISTDGGGTAYRDSVKGRFTISRDNAKNTLYLQMNNLKPEDTAIYYCVIAGYSDWGQGTQVTVSS VL: DVVLTQTPGSLSVVPGESASISCKASQSLVYSDGKTYLYWLLQKPGQSPQRLIYQVSNRDSGVPDRFTGSGSGTDFTLKISGVKVEDAGVYYCAQGTYWPKTFGQGTKLEIK | 545 | 0.0069 | 145 | 0.0146
